According to the nanobody polyreactivity screen of Harvey et al. (2022):

Experiment: yeast display, Sf9 membrane polyspecificity reagent, FACS + sequencing; frameworks hold sequencing errors
In short: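 Nanobodies from a synthetic yeast display library (Saccharomyces cerevisiae BJ5465), induced 36–48 hours with galactose, were stained 1 hour at 4 °C with 10% biotinylated, detergent-solubilized Sf9 membrane reagent, enriched on streptavidin microbeads, then FACS-sorted. Anti-HA (expression) and streptavidin (reagent binding) fluorescence set low and high (top ~1%) gates. Polyreactivity labels come from the gate of origin. Genes were colony-PCR amplified, MiSeq 2 × 250 sequenced and filtered by CDR length.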

Sequence	polyreactivity (PSR sort gate)
QVQLVESGGGLVQAGGSLRLSCAASGSTFRWNAMGWYRQAPWKERELVAAITWSGGRTYYADSVKGRFTISRDNAKNTVYLQMNSLKPEDTAVYYCAAVRGPEHWYDYYYWGQGTQVTVSS	high polyreactivity
QVQLVESGGGLVQAGGSLRLSCAASGSTFRWYAMGWYRQAPGKERELVAAISWSGSTTYYADSVKGRFTISRDNAKNTVYLQMNSLKPEDTAVYYCAAEVVFFGWNYDYWGQGTQVTVSS	high polyreactivity
QVQLVESGGGLVQAGGSLRLSCAASGSTFRWYTMGWYRQAPGKERELVAAITASGGSTFYADSVKGRFTISRDNAKNTVYLQMNSLKPEDTAVYYCAAVNRPRPRRSDYWGQGTQVTVSS	high polyreactivity
QVQLVESGGGLVQAGGSLRLSCAASGSTFRYAMGWYRQAPGKERELVATISSGGSTNYADSVKGRFTISRDNAKNTVYLQMNSLKPEDTAVYYCAADPYGGDNDKGDYWGQGTQVTVSS	low polyreactivity
QVQLVESGGGLVQAGGSLRLSCAASGSTFRYNALGWYRQAPGKERELVAAINYRGGSTYYADSVKGRFTISRDNAKNTVYLQMNSLKPEDTAVYYCNAVLPLAKYEYDSWGHGTQVTVSS	high polyreactivity
QVQLVESGGGLVQAGGSLRLSCAASGSTFRYNAMGWYRQAPGKERELVATITGSGGSTYYADSVKGRFTISRDNAKNTVYLQMNSLKPEDTAVYYCAAAYRGRYSWYYFPRYAYWGQGTQVTVSS	high polyreactivity
QVQLVESGGGLVQAGGSLRLSCAASGSTFRYNAMGWYRQAPWKERELVAAITSGGSTYYADSVKGRFTISRDNAKNTVYLQMNSLKPEDTAVYYCAALWQSRWYKMDYWGQGTQVTVSS	high polyreactivity
QVQLVESGGGLVQAGGSLRLSCAASGSTFRYNSMGWYRQAPGKDRELVAAISRIGGTTYADSVKGRFTISRDNAKNTVYLQMNSLNPEDTAVYYCARANWGYYGPEYGYWGQGTQVTVSS	high polyreactivity
QVQLVESGGGLVQAGGSLRLSCAASGSTFRYNTMGWDRQAPGKERELVAAISGGGGSTYYADSVKGRFTISRDNAKNTVYLQMNSLKPEDTAVYYCAKRHWYAGYVSSYTTRYDYWGQGTQVTVSS	low polyreactivity
QVQLVESGGGLVQAGGSLRLSCAASGSTFRYNTMGWYRQAPGKERELVAAISSGGGTHFADSVKGRFTISRDNAKNTVYLQMNSLKPEDTAVYYCAAQSRYRYQFYSGLEYDYWGQGTQVTVSS	low polyreactivity
QVQLVESGGGLVQAGGSLRLSCAASGSTFRYYAMGWYRQAPGKERELVAAISGTGSTYYADSVKGRFTISRDNAKNTVSLQMNSLKPEDTAVYYCGAYPRGSQRYNYWGQGTQVTVSS	high polyreactivity
QVQLVESGGGLVQAGGSLRLSCAASGSTFRYYAMGWYRQAPGKERELVAAISSSGGRTYYADSVKGRFTISRDNAKNTVYLQMNSLKPEDTAVYYCAALYLRYHYGTDFDYWGQGTKVTVSS	high polyreactivity
QVQLVESGGGLVQAGGSLRLSCAASGSTFRYYAMGWYRQAPGKERELVAAITYRGSSTYYADSVKGRFTISRDNAKNTVYLQMNSLKPEDTAVYYCARRYAGDYYYWGQGTQVTVSS	high polyreactivity
QVQLVESGGGLVQAGGSLRLSCAASGSTFRYYAMGWYRQAPGKERELVAAITYSGGRTYYADSVKGRFTISRDNAKNTVYLQMNSLKPEDTAVYYCAASFRAWSGNYWGQGTQVTVSA	high polyreactivity
QVQLVESGGGLVQAGGSLRLSCAASGSTFRYYAMGWYRQAPGKERELVARITSRAGRTYYADSVKGRFTLSRDNAKNTVYLQMNSLKPEDTAVYYCNTRDFSGYVHALSLYDYWGQGTQVTVSS	high polyreactivity
QVQLVESGGGLVQAGGSLRLSCAASGSTFRYYAMGWYRQAPGKERELVASISTGGRTYYADSVKGRFTISRDNAKNTVYLQMNSLKPEDTAVYYCAAQGYWIYNTAYGYWGQGTQVTVSS	high polyreactivity
QVQLVESGGGLVQAGGSLRLSCAASGSTFRYYAMGWYRQAPGKERELVASITSTGSTNYADSVKGRFTISRDNAKNTVYLQMNSLKPEDTAVYYCAAYRPYFGIAYGYWGQGTQVTVSS	high polyreactivity
QVQLVESGGGLVQAGGSLRLSCAASGSTFRYYAMGWYRQAPGKERELVAVIRNSGGSTYYADSVKGRFTISRDNAKNTVYLQKNSLKREDTAVYYCAARLYTFHRDYWGQGTQVTVSS	low polyreactivity
QVQLVESGGGLVQAGGSLRLSCAASGSTFRYYAMGWYRQAPGKERQLVAAISYRGGSTKYADSVKGRFTISRDNAKNTVYLQMNSLKPEDTAVYYCAADSYYDSKRYYWGQGTQVTVSS	high polyreactivity
QVQLVESGGGLVQAGGSLRLSCAASGSTFRYYAMGWYRQAPGKEWELVAVISTSGNTYYADSVKGRFTISRDNAKNTVYLQMNSLKPEDTAVYYCAARGVGGQISQEYDYWGQGTQVTVSS	low polyreactivity
QVQLVESGGGLVQAGGSLRLSCAASGSTFRYYSMGWYRQAPGKERELVAAITRSGTSTYYADSVKGRFTISRDTAKNTVYLQMNSLQPEDTAFYYCNAVTPYSREYDYWGQGTQVTVSS	high polyreactivity
QVQLVESGGGLVQAGGSLRLSCAASGSTFRYYTMGWYRQAPGKEREFVAAITSSGTSTYYADSVKGRFTISRDNAKNTVYLQMNSLKPEDTAVYYCNKVGIYGSRSRYDSWGQGTQVTVSS	high polyreactivity

Sequence	polyreactivity (PSR sort gate)
QVQLVESGGGLVQAGGSLRLSCAASGSTFRYYTMGWYRQAPGKERELVARISRSGGSTYYADSVKGRFTISRDNAKNTVYLQMNSLKPEDTAVYYCAALYYVKPGQRYDYWGQGTQVTVSS	high polyreactivity
QVQLVESGGGLVQAGGSLRLSCAASGSTFRYYTMGWYRQAPGKERELVARISWSGGSTYYAYSVKGRFTISRDNAKYTVYLQMNSLKPEDTAVYYCNAVLFYFQTRDYWGQGTQVTVSS	high polyreactivity
QVQLVESGGGLVQAGGSLRLSCAASGSTFSANDMGWDRQAPGKEREFVAAITTSDDSTYYADSVKGRYTISRDNAKNTVYLQMNSLKPEDTAVYYCNAYSGYSFFGLCFFYKYDYWGQGTQVTVSS	low polyreactivity
QVQLVESGGGLVQAGGSLRLSCAASGSTFSDNAMGGYRQAAGKERELVAAISWTGGSTYADSVKGRFTISRDNAKNTVYLQMNRLKPEDTAVYYCAAGGDFDGNYWGQGTQVTVSS	low polyreactivity
QVQLVESGGGLVQAGGSLRLSCAASGSTFSDNAMGWYRQAPGKERELVAAINETGGSTYYADSVKGRFTISRDNAKNTVYLQMNSLKPEDTAVYYCNADIDPYGATYAIEYDYWGQGTQVTVSS	low polyreactivity
QVQLVESGGGLVQAGGSLRLSCAASGSTFSDYAMGWYRPEPGQERELVATITSTGDTNYADSVKGRFTISRDNAKNTVYLQMNSLKPEDTAVYYCAAQHKKYGKRGLWNNFGYWGQGTQVSVSS	low polyreactivity
QVQLVESGGGLVQAGGSLRLSCAASGSTFSEYAMGWYRQAPGKEREFVATITVRGGSTYYADSVKGRFTISRDNAKNTVYLQMNSLKPEDTAVYYCAADGSGYYDWYYYWGQGTQVTVSS	low polyreactivity
QVQLVESGGGLVQAGGSLRLSCAASGSTFSFYAMGWYRQAPGKERELVAAIRFSGTSTYADSVKGRFTISRDNAKNTVYLQMNSLKPEDTAVYYCAARRAVFYSQRYYRYDYWGQGTQVTVSS	high polyreactivity
QVQLVESGGGLVQAGGSLRLSCAASGSTFSGNAMGWYRQAPGKERELVAAISWSGDTTYYADSVKGRFTISRDNAKNTVYLQMNSLKPEDTAVYYCAVRYYWRRMNYWGQGTQVTVSS	high polyreactivity
QVQLVESGGGLVQAGGSLRLSCAASGSTFSGNAMGWYRQAPGKERELVAAITSSGGSTYYADSVKGRFTISRDNAKNTVYLQMNSLKPEDTAVYYCAAKSRRTRRSYYWGQGTQVTVSS	high polyreactivity
QVQLVESGGGLVQAGGSLRLSCAASGSTFSGYAKGWYRQAPGTEWELVAAINWNGGRTYYADSVKGRFTISRDNAKNTVYLQMNSLKPEDTAVYYCNAVTRAAYWWTARSTDYDYWGQGTQVTVSS	high polyreactivity
QVQLVESGGGLVQAGGSLRLSCAASGSTFSGYAMGWYRQAPGKERELVAAITSDGSTYYADSVKGRFTISRDNAKNTVYLQMNSLKPEDTAVYYCAVGIPYRGRQGYYGYYTYDYWGQGTQVTVSS	high polyreactivity
QVQLVESGGGLVQAGGSLRLSCAASGSTFSGYAMGWYRQAPGKERELVATISGGGSTYYADSVKGRFTISRDNAKNTVYLQMNSLKPEDTAVFYCNAQGYGIFTSSLDYWGQGTQVTVSS	low polyreactivity
QVQLVESGGGLVQAGGSLRLSCAASGSTFSHNAMGWYRQAPGKERELVAAISSDGTTYYADSVKGRFTISRDNAKNTVYLQMNSLKPEDTAVYYCNKTRWTQRTSFDYWGQGTQVTVSS	low polyreactivity
QVQLVESGGGLVQAGGSLRLSCAASGSTFSHYAMGWYRQAPGKERELVATITGTGVRTYYADSVKGRFTISRDNAKNTVYLQMNSLKPEDTAVYYCAVPPSKRGAQAQPWMDYWGQGTQVTVSS	low polyreactivity
QVQLVESGGGLVQAGGSLRLSCAASGSTFSINAMGWYRQAPGKERELVAAITWRGVRTYYADSVKGRFTISRDNAKNTVYLQMNSLKPEDPAVYYCAAVPATSYPRRYVYAYYYWGQGTQVTVSS	high polyreactivity
QVQLVESGGGLVQAGGSLRLSCAASGSTFSIYAMGWYRKAPGKERELVAAISTDGGSTNYADSVKGRFTISRDNAKNTVYLQMNILKPEDTAVYYCAADTYWYLSPYDYWGQGTQVTVSS	low polyreactivity
QVQLVESGGGLVQAGGSLRLSCAASGSTFSIYTMGWYRQAPGKERELVAAINTGDGDTYYADSVKGRFTISRDNAKNTFYLQMNSLKPEDTAVYYCAAVYSQLSNLYYYWGQGTQVTVSS	low polyreactivity
QVQLVESGGGLVQAGGSLRLSCAASGSTFSLYALGWYRQAPGKERELVAAITRGGNTYYADSVKGRFTISRDNAKNTVYLQMNSLKPEDTAVYYCNAVFPKTRSYAYGYWGQGTQVTVSS	high polyreactivity
QVQLVESGGGLVQAGGSLRLSCAASGSTFSLYAMGWYRQAPGKERELVAAISWSDGSTYYADSVKGRFTISRDNAKNTVYLQMNSLKPEDTAVYYCAAESTVRPYEHSGDYWGQGTQVTVSS	low polyreactivity
QVQLVESGGGLVQAGGSLRLSCAASGSTFSLYAMGWYRQAPGKERELVARISYTDGSTYYADSVKGRFTISRDNAKNTVYLQMNSLKPEDTAVYYCAAEAWYSYTLEDYWGQGTQVTVSS	low polyreactivity
